From patent US20050244819

Test system: beta-Gal^PR, engineered E. coli beta-galactosidase with the HIV p6/PR cleavage site decapeptide inse [β-galactosidase: P00722]

TF-PR^D25N, HIV protease precursor with the D25N mutation at the catalytic residue Asp25
β-galactosidase activity: 0.178 µmol/min/mg
